Here are results for 167 variants from the RNAGym collection of RNA variant scans (doi:10.7554/elife.80360).

First the molecules themselves.
B1: CPEB3 Ribozyme (parent)
chain: GGGGGCCACAGCAGAAGCGUUCACGUCGCGGCCCCUGUCAGAUUCUGGUGAAUCUGCGAAUUCUGCUGU

In this series the parent is B1. The series can be described thus: self-cleavage, relative activity (ratio to wild type); higher = more cleavage; co-transcriptional.
For the variant U20A C24G, the self-cleavage amounted to 0.0902.

Take G19U C57A: the self-cleavage amounted to 0.224.

Take G19C U61A: the self-cleavage came out at 0.216.

As for G19U G50U, the self-cleavage turned out to be 0.509.

Take U20A U43A: the self-cleavage amounted to 0.152.

Turning to U20A A60U, the self-cleavage came to 0.117.

As to U20A U38C, the self-cleavage amounted to 0.107.

Consider U20A U38A, for which the self-cleavage was found to be 0.188.

Turning to G19C C29U, the self-cleavage was 0.112.

For U20A U21G, the self-cleavage was determined as 0.2.

Take U20A U21A: the self-cleavage worked out at 0.219.

Regarding U20A C54A, the self-cleavage was determined as 0.125.

As for U20A A40C, the self-cleavage is 0.188.

Turning to U20A A40U, the self-cleavage was determined as 0.0825.

As to U20A U36A, the self-cleavage came to 0.158.

Turning to G19U C45A, the self-cleavage was determined as 0.459.

In the case of U20A G47U, the self-cleavage was found to be 0.179.

Turning to U20A G47C, the self-cleavage stood at 0.261.

Regarding G19U C27U, the self-cleavage was 0.158.

As for G19C C27A, the self-cleavage came out at 0.135.

Take G19U G48C: the self-cleavage amounted to 0.699.

With G19U G48A, the self-cleavage amounted to 0.673.

For the variant G19C G48C, the self-cleavage came out at 0.169.

G19C G48A: the self-cleavage came out at 0.189.

Consider G19C G48U, for which the self-cleavage came out at 0.141.

Turning to U20A U26A, the self-cleavage came out at 0.0885.

As to U20C C66G, the self-cleavage amounted to 0.179.

For the variant G19U U53A, the self-cleavage is 0.273.

Consider G19U U53C, for which the self-cleavage worked out at 0.242.

On to G19U U53G, for which the self-cleavage turned out to be 0.252.

As for U20A A23U, the self-cleavage worked out at 0.192.

For the variant U20A A23G, the self-cleavage worked out at 0.041.

For U20C G65U, the self-cleavage was determined as 0.18.

As for U20C G65C, the self-cleavage is 0.126.

For U20C U21C, the self-cleavage came out at 0.197.

For the variant U20C U21G, the self-cleavage came out at 0.211.

On to G19U C63G, for which the self-cleavage worked out at 0.249.

G19U C63U: the self-cleavage was 0.318.

As to U20A G65A, the self-cleavage was found to be 0.156.

For the variant G19U U49A, the self-cleavage was 0.639.

G19C A59U: the self-cleavage was found to be 0.185.

For G19C A59C, the self-cleavage was found to be 0.0891.

For U20A C39G, the self-cleavage came out at 0.251.

As to G19C C22U, the self-cleavage was 0.158.

As for G19U U20G, the self-cleavage is 0.139.

Consider U20C G37C, for which the self-cleavage amounted to 0.0963.

Consider G19C G50C, for which the self-cleavage came out at 0.148.

For the variant G19C U46G, the self-cleavage is 0.122.

G19U C32U: the self-cleavage was determined as 0.55.

On to G19C C35U, for which the self-cleavage is 0.163.

Regarding U20A A59U, the self-cleavage was 0.106.

Take G19U U44C: the self-cleavage stood at 0.232.

Regarding U20C U36C, the self-cleavage was 0.159.

With U20C U36G, the self-cleavage came to 0.116.

For G19U C24U, the self-cleavage worked out at 0.169.

As for G19U C24A, the self-cleavage came out at 0.153.

For G19C G41U, the self-cleavage worked out at 0.129.

Turning to G19U G28C, the self-cleavage amounted to 0.125.

In the case of U20C C27A, the self-cleavage amounted to 0.17.

Take U20A U67A: the self-cleavage turned out to be 0.12.

Take G19U U38C: the self-cleavage was 0.252.

In the case of U20A G58C, the self-cleavage came out at 0.164.

Take G19C G58A: the self-cleavage stood at 0.162.

In the case of G19U G58C, the self-cleavage is 0.443.

On to G19C G30U, for which the self-cleavage came to 0.157.

On to G19C G47A, for which the self-cleavage is 0.169.

On to G19U G30C, for which the self-cleavage turned out to be 0.186.

For U20C C57U, the self-cleavage came to 0.194.

Turning to U20C C57A, the self-cleavage was found to be 0.232.

For the variant U20A G41U, the self-cleavage was determined as 0.126.

For the variant U20A G41A, the self-cleavage came to 0.166.

As to U20C C54A, the self-cleavage stood at 0.156.

With G19U U55A, the self-cleavage came out at 0.209.

Take G19U U55G: the self-cleavage stood at 0.127.

With U20C C24G, the self-cleavage stood at 0.146.

Take U20C C24A: the self-cleavage turned out to be 0.191.

For the variant U20C C24U, the self-cleavage is 0.18.

For G19C C33A, the self-cleavage was determined as 0.196.

Consider G19C U53C, for which the self-cleavage is 0.0977.

Regarding U20A C35U, the self-cleavage turned out to be 0.124.

As to U20C G28U, the self-cleavage is 0.208.

U20C A23G: the self-cleavage was determined as 0.238.

With U20A U62C, the self-cleavage stood at 0.148.

As for U20A U62G, the self-cleavage turned out to be 0.0797.

G19C U49A: the self-cleavage was determined as 0.178.

G19C C63G: the self-cleavage came out at 0.204.

Consider G19C C63A, for which the self-cleavage was 0.144.

As for G19C C63U, the self-cleavage stood at 0.135.

As for U20C G56U, the self-cleavage is 0.127.

On to U20C G56C, for which the self-cleavage amounted to 0.203.

On to G19C C32G, for which the self-cleavage worked out at 0.207.

Regarding G19U U69G, the self-cleavage was determined as 0.819.

With U20C G30A, the self-cleavage is 0.17.

Turning to U20A G37U, the self-cleavage was 0.169.

U20C G50A: the self-cleavage was determined as 0.174.

With U20C G50C, the self-cleavage turned out to be 0.102.

Consider U20A U49C, for which the self-cleavage was determined as 0.275.

On to U20A U49G, for which the self-cleavage was found to be 0.199.

Consider U20C C32U, for which the self-cleavage was 0.248.

As to U20C C32G, the self-cleavage is 0.218.

On to G19U C66U, for which the self-cleavage amounted to 0.382.

Consider G19U G47A, for which the self-cleavage was 0.655.

Turning to G19U G47C, the self-cleavage was determined as 0.677.

In the case of U20A C63U, the self-cleavage worked out at 0.16.

On to U20C C29G, for which the self-cleavage came to 0.165.

On to G19U G56U, for which the self-cleavage was 0.281.

Turning to G19U A51C, the self-cleavage is 0.432.

Take U20C A40U: the self-cleavage was found to be 0.227.

As to U20C A40C, the self-cleavage turned out to be 0.215.

As for G19C U69A, the self-cleavage stood at 0.147.

As for G19C A51U, the self-cleavage came out at 0.157.

Take U20A C45G: the self-cleavage turned out to be 0.149.

As to U20A C45A, the self-cleavage was determined as 0.142.

With G19C U21G, the self-cleavage was 0.161.

On to G19C U44C, for which the self-cleavage stood at 0.164.

Regarding G19C C57U, the self-cleavage turned out to be 0.146.

On to G19C G56U, for which the self-cleavage came out at 0.123.

For G19C A60G, the self-cleavage worked out at 0.119.

In the case of G19C A60U, the self-cleavage stood at 0.128.

Turning to U20A C33U, the self-cleavage came out at 0.2.

In the case of U20A C33A, the self-cleavage worked out at 0.166.

For the variant U20A C33G, the self-cleavage is 0.192.

Turning to U20A G48C, the self-cleavage came out at 0.117.

With U20A G48U, the self-cleavage was found to be 0.104.

For the variant U20C A51C, the self-cleavage came out at 0.259.

With U20C A51U, the self-cleavage worked out at 0.172.

U20A U69A: the self-cleavage worked out at 0.181.

For the variant G19C U43G, the self-cleavage came out at 0.122.

G19C U43C: the self-cleavage came out at 0.134.

On to G19C U38A, for which the self-cleavage is 0.218.

Turning to G19C U38C, the self-cleavage was 0.135.

In the case of G19U G68A, the self-cleavage came to 0.793.

In the case of G19C G25U, the self-cleavage was 0.145.

As for G19C G25A, the self-cleavage is 0.101.

Regarding G19U A23G, the self-cleavage is 0.262.

For G19C U67C, the self-cleavage amounted to 0.203.

Consider U20C A42U, for which the self-cleavage came out at 0.271.

For the variant U20C A42C, the self-cleavage amounted to 0.199.

As to U20C G48C, the self-cleavage was found to be 0.229.

U20A C27A: the self-cleavage was 0.151.

For the variant G19C C39G, the self-cleavage is 0.162.

Regarding G19C C39U, the self-cleavage came to 0.158.

For G19C U64G, the self-cleavage was 0.139.

For the variant G19C U64A, the self-cleavage came to 0.176.

Turning to G19C C24G, the self-cleavage amounted to 0.135.

Consider G19C C24U, for which the self-cleavage was determined as 0.204.

With G19C C24A, the self-cleavage amounted to 0.183.

As to U20C C22A, the self-cleavage was determined as 0.201.

Consider G19C U62C, for which the self-cleavage was found to be 0.123.

Regarding G19C U62A, the self-cleavage was 0.107.

Take G19U A59C: the self-cleavage was 0.131.

As for G19U U36C, the self-cleavage is 0.212.

Consider G19U U36A, for which the self-cleavage is 0.164.

In the case of G19U U21G, the self-cleavage was determined as 0.159.

For the variant G19U U21A, the self-cleavage was 0.31.

As for G19U C29U, the self-cleavage amounted to 0.117.

For the variant G19U C35U, the self-cleavage came out at 0.262.

For the variant G19U C35A, the self-cleavage stood at 0.119.

U20C A52G: the self-cleavage was determined as 0.161.

Turning to U20A G50A, the self-cleavage was determined as 0.147.

For the variant G19U C34A, the self-cleavage amounted to 0.195.

In the case of G19U C34U, the self-cleavage came to 0.545.

In the case of G19U C34G, the self-cleavage is 0.232.

As to U20C G68C, the self-cleavage is 0.211.

Take U20C G68U: the self-cleavage worked out at 0.195.

Take U20A A42U: the self-cleavage worked out at 0.133.

With G19U A60C, the self-cleavage was found to be 0.18.
